Assay results published in patent US20160075795A1 (Hoffmann-La Roche, published 2016).

Columns and labels:
[1] = molecular target: T1, membrane-bound human carcinoembryonic antigen (CEA) (human, UniProt P06731 35-685, GPI anchor at the C-terminus of the mature chain; heavily N-glycosylated. Neither can be carried in the letters.); assay: flow cytometry on MKN45 target cells, antibodies as IgG [top panel]
T1 construct: Target of the flow cytometry experiments; also called CEACAM-5; CD66e
T1 sequence: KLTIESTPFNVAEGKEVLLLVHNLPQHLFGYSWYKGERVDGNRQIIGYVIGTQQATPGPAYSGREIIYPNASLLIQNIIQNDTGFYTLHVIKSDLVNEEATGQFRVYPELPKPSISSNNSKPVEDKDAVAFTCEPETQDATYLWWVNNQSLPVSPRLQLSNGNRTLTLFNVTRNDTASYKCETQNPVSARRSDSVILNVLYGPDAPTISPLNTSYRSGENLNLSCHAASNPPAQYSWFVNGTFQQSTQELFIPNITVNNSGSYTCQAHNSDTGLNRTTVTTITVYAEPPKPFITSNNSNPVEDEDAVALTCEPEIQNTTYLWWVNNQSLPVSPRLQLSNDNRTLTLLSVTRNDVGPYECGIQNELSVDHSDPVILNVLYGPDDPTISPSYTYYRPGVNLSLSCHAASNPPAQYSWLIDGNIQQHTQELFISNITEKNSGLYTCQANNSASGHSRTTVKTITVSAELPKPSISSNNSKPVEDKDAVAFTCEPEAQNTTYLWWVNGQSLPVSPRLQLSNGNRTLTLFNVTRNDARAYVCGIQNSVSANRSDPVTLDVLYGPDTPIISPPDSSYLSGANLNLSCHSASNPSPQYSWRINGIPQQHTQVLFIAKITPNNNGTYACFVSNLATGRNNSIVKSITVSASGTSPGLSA

huNABA-avi-his [2] = molecular target: T2, huNABA-avi-his (human, biotinylated in vivo at the avi tag); assay: SPR (Biacore); antigen not given, taken as huNABA-avi-his
T2 construct: immobilized on the Biacore chip; also called NABA-avi-his reagent; N-A1-B3-A2
T2 chain: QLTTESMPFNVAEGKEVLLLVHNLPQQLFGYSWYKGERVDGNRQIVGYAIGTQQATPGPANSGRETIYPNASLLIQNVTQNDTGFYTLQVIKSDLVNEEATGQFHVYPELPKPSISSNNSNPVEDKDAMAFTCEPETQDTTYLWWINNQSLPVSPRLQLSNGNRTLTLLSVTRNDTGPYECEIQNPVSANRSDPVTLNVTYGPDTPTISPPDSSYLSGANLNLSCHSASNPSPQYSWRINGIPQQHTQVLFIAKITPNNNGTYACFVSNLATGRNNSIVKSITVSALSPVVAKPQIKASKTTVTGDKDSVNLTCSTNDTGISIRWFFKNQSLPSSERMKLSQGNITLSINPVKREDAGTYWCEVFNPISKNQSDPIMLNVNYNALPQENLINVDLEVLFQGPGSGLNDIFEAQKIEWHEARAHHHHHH

huNABA-avi-his [3] = molecular target: T2, huNABA-avi-his; assay: SPR (Biacore), Fab over immobilized NABA-avi-his; monovalent affinity column
Method: For the exact analysis of the kinetic parameters, Fabs were purified from bacterial cultures. A 500 ml culture was inoculated and induced with 1 mM IPTG at an OD600 0.9. Bacteria were incubated at 25° C. overnight and harvested by centrifugation. After the incubation of the resuspended pellet for 20 min in 25 ml PPB buffer (30 mM Tris-HCl pH8, 1 mM EDTA, 20% sucrose), bacteria were centrifuged again and the supernatant was harvested. This incubation step was repeated once with 25 ml of a 5 mM MgSO₄ solution. The supernatants of both incubation steps were pooled, filtered and loaded on a IMAC column (His gravitrap, GE Healthcare). Subsequently, the column was washed with 40 volumes. After the elution (500 mM NaCl, 500 mM Imidazole, 20 mM NaH₂PO₄ pH 7.4) the eluate was re-buffered using PD 10 columns (GE Healthcare). The kinetic parameters of the purified Fabs were then studied by SPR-analysis in a dilution row that ranged from 200 nM to 6.25 nM.
Table 11, below, summarizes the affinity constants of the various affinity matured antibody sequences. The parental antibody PR1A3 is listed as well as several light chain and heavy chain combinations of matured and non matured sequences. All values were obtained by Biacore technology by measuring the association (kₒₙ) and dissociation (koff) rate constants of the various soluble antibody constructs in Fab format on a Biacore chip with immobilized NABA-avi-his reagent (SEQ ID NO 158) as the antigen. The affinity constant is labeled with KD.

huNABA-avi-his [4] = molecular target: T2, huNABA-avi-his; assay: SPR (Biacore), immobilized NABA-avi-his; bivalent affinity column (bivalent construct not described)
[5] = molecular target: T1, membrane-bound human carcinoembryonic …; assay: flow cytometry on CEA-positive MKN45 target cells, antibodies as IgG [bottom panel]

B1: CH7A / CL1A rH11 antibody (parent heavy chain with affinity matured light chain) (antibody, human IgG1, V domains shown)
VH: QVQLVQSGSELKKPGASVKVSCKASGYTFTEFGMNWVRQAPGQGLEWMGWINTKTGEATYVEEFKGRFVFSLDTSVSTAYLQISSLKAEDTAVYYCARWDFYDYVEAMDYWGQGTTVTVSS
VL: DIQMTQSPSSLSASVGDRVTITCKASQTVSANVAWYQQKPGKAPKLLIYLASYRYRGVPSRFSGSGSGTDFTLTISSLQPEDFATYYCHQYYTYPLFTFGQGTKLEIKR
notes: also called CLA1 rH11
In the case of B1, the “EC50 (read off the curve)” value [1] is reported as roughly 0.6 µg/mL.

B2: 1C8 Fab (hc/wt) (Fab, V domains shown)
VH: QVQLVQSGSELKKPGASVKVSCKASGYTFTEFGMNWVRQAPGQGLEWMGWINTKTGEATYVEEFKGRFVFSLDTSVSTAYLQISSLKAEDTAVYYCARWDFYHYVEAMDYWGQGTTVTVSS
VL: DIQMTQSPSSLSASVGDRVTITCKASQNVGTNVAWYQQKPGKAPKLLIYSASYRYSGVPSRFSGSGSGTDFTLTISSLQPEDFATYYCHQYYTYPLFTFGQGTKLEIK
notes: Fab format
For B2, the Kd (huNABA-avi-his [2]) was 586 nM, the Kd (huNABA-avi-his [3]) was 586 nM and the koff (huNABA-avi-his [3]) was 0.0076 s⁻¹. The kon (huNABA-avi-his [3]) was 12900 M⁻¹ s⁻¹, the Kd (huNABA-avi-his [4]) was 0.693 nM and the koff (huNABA-avi-his [4]) was 0.000324 s⁻¹. For the same binder, the kon (huNABA-avi-his [4]) was 467000 M⁻¹ s⁻¹.

B3: Affinity Matured CDRH-3 construct with CDR-H3 SEQ ID NO:33 (WDFAHYFQTMDY) (Fab, V domains shown)
VH: QVQLVQSGSELKKPGASVKVSCKASGYTFTEFGMNWVRQAPGQGLEWMGWINTKTGEATYVEEFKGRFVFSLDTSVSTAYLQISSLKAEDTAVYYCARWDFAHYFQTMDYWGQGTTVTVSS
VL: DIQMTQSPSSLSASVGDRVTITCKASQNVGTNVAWYQQKPGKAPKLLIYSASYRYSGVPSRFSGSGSGTDFTLTISSLQPEDFATYYCHQYYTYPLFTFGQGTKLEIK
B3 showed a Kd (huNABA-avi-his [2]) of 59 nM.

B4: humanized PR1A3 antibody comprising heavy chain variable region construct CH7A and light chain variable region construct CL1A (antibody, V domains shown)
VH: QVQLVQSGSELKKPGASVKVSCKASGYTFTEFGMNWVRQAPGQGLEWMGWINTKTGEATYVEEFKGRFVFSLDTSVSTAYLQISSLKAEDTAVYYCARWDFYDYVEAMDYWGQGTTVTVSS
VL: DIQMTQSPSSLSASVGDRVTITCKASQNVGTNVAWYQQKPGKAPKLLIYSASYRYSGVPSRFSGSGSGTDFTLTISSLQPEDFATYYCHQYYTYPLFTFGQGTKLEIK
notes: also called CH7A CL1A; CH7A, CL1A
In the case of B4, the “EC50 (read off the curve)” value [5] is reported as roughly 0.7 µg/mL.

B5: Affinity Matured CDRH-3 construct with CDR-H3 SEQ ID NO:35 (WDFAYYLEAMDY) (Fab, V domains shown)
VH: QVQLVQSGSELKKPGASVKVSCKASGYTFTEFGMNWVRQAPGQGLEWMGWINTKTGEATYVEEFKGRFVFSLDTSVSTAYLQISSLKAEDTAVYYCARWDFAYYLEAMDYWGQGTTITVSS
VL: DIQMTQSPSSLSASVGDRVTITCKASQNVGTNVAWYQQKPGKAPKLLIYSASYRYSGVPSRFSGSGSGTDFTLTISSLQPEDFATYYCHQYYTYPLFTFGQGTKLEIK
B5 was tested, and the Kd (huNABA-avi-his [2]) was 69 nM.

B6: Affinity Matured CDRH-3 construct with CDR-H3 SEQ ID NO:34 (WDFAYYFQTMDY) (Fab, V domains shown)
VH: QVQLVQSGSELKKPGASVKVSCKASGYTFTEFGMNWVRQAPGQGLEWMGWINTKTGEATYVEEFKGRFVFSLDTSVSTAYLQISSLKAEDTAVYYCARWDFAYYFQTMDYWGQGTTVTVSS
VL: DIQMTQSPSSLSASVGDRVTITCKASQNVGTNVAWYQQKPGKAPKLLIYSASYRYSGVPSRFSGSGSGTDFTLTISSLQPEDFATYYCHQYYTYPLFTFGQGTKLEIK
With B6 the Kd (huNABA-avi-his [2]) was 44 nM.

B7: H3 Full (5) 19 Fab (hc/wt) (Fab, V domains shown)
VH: QVQLVQSGSELKKPGASVKVSCKASGYTFTEFGMSWVRQAPGQGLEWMGWINTKTGEATYVEEFKGRFVFSLDTSVSTAYLQISSLKAEDTAVYYCARWDAFEYVKALDYWGQGTTVTVSS
VL: DIQMTQSPSSLSASVGDRVTITCKASQNVGTNVAWYQQKPGKAPKLLIYSASYRYSGVPSRFSGSGSGTDFTLTISSLQPEDFATYYCHQYYTYPLFTFGQGTKLEIK
For B7, the Kd (huNABA-avi-his [4]) was 0.19 nM, the koff (huNABA-avi-his [4]) was 0.000175 s⁻¹ and the kon (huNABA-avi-his [4]) was 902000 M⁻¹ s⁻¹.
